Target: Chaperonin-containing TCP-1 (CCT) oligomeric complex (human (endogenous in T47D)) (UniProt P17987)
Assay: native gel or EMSA; native PAGE of T47D CCT2-FLAG cell lysates; blotted for FLAG, CCT2 and CCT3; oligomeric complex against free monomer

percent of the total FLAG signal as free monomer: 24%
B1: CCT2-FLAG (FLAG-tagged CCT2, FLAG tag on the C-terminal of CCT2) (natural protein)
chain: MASLSLAPVNIFKAGADEERAETARLTSFIGAIAIGDLVKSTLGPKGMDKILLSSGRDASLMVTNDGATILKNIGVDNPAAKVLVDMSRVQDDEVGDGTTSVTVLAAELLREAESLIAKKIHPQTIIAGWREATKAAREALLSSAVDHGSDEVKFRQDLMNIAGTTLSSKLLTHHKDHFTKLAVEAVLRLKGSGNLEAIHIIKKLGGSLADSYLDEGFLLDKKIGVNQPKRIENAKILIANTGMDTDKIKIFGSRVRVDSTAKVAEIEHAEKEKMKEKVERILKHGINCFINRQLIYNYPEQLFGAAGVMAIEHADFAGVERLALVTGGEIASTFDHPELVKLGSCKLIEEVMIGEDKLIHFSGVALGEACTIVLRGATQQILDEAERSLHDALCVLAQTVKDSRTVYGGGCSEMLMAHAVTQLANRTPGKEAVAMESYAKALRMLPTIIADNAGYDSADLVAQLRAAHSEGNTTAGLDMREGTIGDMAILGITESFQVKRQVLLSAAEAAEVILRVDNIIKAAPRKRVPDHHPC
